Data: publication PMC2120109 (The Journal of Cell Biology, 1994)

B1: NSF K266A mutant with His6 at the amino terminus and a myc epitope at the carboxy terminus (natural protein, UniProt P18708 1-744, looked up)
chain: MAGRSMQAARCPTDELSLSNCAVVSEKDYQSGQHVIVRTSPNHKYIFTLRTHPSVVPGSVAFSLPQRKWAGLSIGQEIEVALYSFDKAKQCIGTMTIEIDFLQKKNIDSNPYDTDKMAAEFIQQFNNQAFSVGQQLVFSFNDKLFGLLVKDIEAMDPSILKGEPASGKRQKIEVGLVVGNSQVAFEKAENSSLNLIGKAKTKENRQSIINPDWNFEKMGIGGLDKEFSDIFRRAFASRVFPPEIVEQMGCKHVKGILLYGPPGCGATLLARQIGKMLNAREPKVVNGPEILNKYVGESEANIRKLFADAEEEQRRLGANSGLHIIIFDEIDAICKQRGSMAGSTGVHDTVVNQLLSKIDGVEQLNNILVIGMTNRPDLIDEALLRPGRLEVKMEIGLPDEKGRLQILHIHTARMRGHQLLSADVDIKELAVETKNFSGAELEGLVRAAQSTAMNRHIKASTKVEVDMEKAESLQVTRGDFLASLENDIKPAFGTNQEDYASYIMNGIIKWGDPVTRVLDDGELLVQQTKNSDRTPLVSVLLEGPPHSGKTALAAKIAEESNFPFIKICSPDKMIGFSETAKCQAMKKIFDDAYKSQLSCVVVDDIERLLDYVPIGPRFSNLVLQALLVLLKKAPPQGRKLLIIGTTSRKDVLQEMEMLNAFSTTIHVPNIATGEQLLEALELLGNFKDKERTTIAQQVKGKKVWIGIKKLLMLIEMSLQMDPEYRVRKFLALLREEGASPLDFD
B2: NSF E329Q mutant (natural protein, UniProt P18708 1-744, looked up)
chain: MAGRSMQAARCPTDELSLSNCAVVSEKDYQSGQHVIVRTSPNHKYIFTLRTHPSVVPGSVAFSLPQRKWAGLSIGQEIEVALYSFDKAKQCIGTMTIEIDFLQKKNIDSNPYDTDKMAAEFIQQFNNQAFSVGQQLVFSFNDKLFGLLVKDIEAMDPSILKGEPASGKRQKIEVGLVVGNSQVAFEKAENSSLNLIGKAKTKENRQSIINPDWNFEKMGIGGLDKEFSDIFRRAFASRVFPPEIVEQMGCKHVKGILLYGPPGCGKTLLARQIGKMLNAREPKVVNGPEILNKYVGESEANIRKLFADAEEEQRRLGANSGLHIIIFDQIDAICKQRGSMAGSTGVHDTVVNQLLSKIDGVEQLNNILVIGMTNRPDLIDEALLRPGRLEVKMEIGLPDEKGRLQILHIHTARMRGHQLLSADVDIKELAVETKNFSGAELEGLVRAAQSTAMNRHIKASTKVEVDMEKAESLQVTRGDFLASLENDIKPAFGTNQEDYASYIMNGIIKWGDPVTRVLDDGELLVQQTKNSDRTPLVSVLLEGPPHSGKTALAAKIAEESNFPFIKICSPDKMIGFSETAKCQAMKKIFDDAYKSQLSCVVVDDIERLLDYVPIGPRFSNLVLQALLVLLKKAPPQGRKLLIIGTTSRKDVLQEMEMLNAFSTTIHVPNIATGEQLLEALELLGNFKDKERTTIAQQVKGKKVWIGIKKLLMLIEMSLQMDPEYRVRKFLALLREEGASPLDFD
B3: NSF double hydrolysis mutant E329/D604Q (natural protein, UniProt P18708 1-744, looked up)
chain: MAGRSMQAARCPTDELSLSNCAVVSEKDYQSGQHVIVRTSPNHKYIFTLRTHPSVVPGSVAFSLPQRKWAGLSIGQEIEVALYSFDKAKQCIGTMTIEIDFLQKKNIDSNPYDTDKMAAEFIQQFNNQAFSVGQQLVFSFNDKLFGLLVKDIEAMDPSILKGEPASGKRQKIEVGLVVGNSQVAFEKAENSSLNLIGKAKTKENRQSIINPDWNFEKMGIGGLDKEFSDIFRRAFASRVFPPEIVEQMGCKHVKGILLYGPPGCGKTLLARQIGKMLNAREPKVVNGPEILNKYVGESEANIRKLFADAEEEQRRLGANSGLHIIIFDQIDAICKQRGSMAGSTGVHDTVVNQLLSKIDGVEQLNNILVIGMTNRPDLIDEALLRPGRLEVKMEIGLPDEKGRLQILHIHTARMRGHQLLSADVDIKELAVETKNFSGAELEGLVRAAQSTAMNRHIKASTKVEVDMEKAESLQVTRGDFLASLENDIKPAFGTNQEDYASYIMNGIIKWGDPVTRVLDDGELLVQQTKNSDRTPLVSVLLEGPPHSGKTALAAKIAEESNFPFIKICSPDKMIGFSETAKCQAMKKIFDDAYKSQLSCVVVDQIERLLDYVPIGPRFSNLVLQALLVLLKKAPPQGRKLLIIGTTSRKDVLQEMEMLNAFSTTIHVPNIATGEQLLEALELLGNFKDKERTTIAQQVKGKKVWIGIKKLLMLIEMSLQMDPEYRVRKFLALLREEGASPLDFD
B4: NSF K549A mutant (natural protein, UniProt P18708 1-744, looked up)
chain: MAGRSMQAARCPTDELSLSNCAVVSEKDYQSGQHVIVRTSPNHKYIFTLRTHPSVVPGSVAFSLPQRKWAGLSIGQEIEVALYSFDKAKQCIGTMTIEIDFLQKKNIDSNPYDTDKMAAEFIQQFNNQAFSVGQQLVFSFNDKLFGLLVKDIEAMDPSILKGEPASGKRQKIEVGLVVGNSQVAFEKAENSSLNLIGKAKTKENRQSIINPDWNFEKMGIGGLDKEFSDIFRRAFASRVFPPEIVEQMGCKHVKGILLYGPPGCGKTLLARQIGKMLNAREPKVVNGPEILNKYVGESEANIRKLFADAEEEQRRLGANSGLHIIIFDEIDAICKQRGSMAGSTGVHDTVVNQLLSKIDGVEQLNNILVIGMTNRPDLIDEALLRPGRLEVKMEIGLPDEKGRLQILHIHTARMRGHQLLSADVDIKELAVETKNFSGAELEGLVRAAQSTAMNRHIKASTKVEVDMEKAESLQVTRGDFLASLENDIKPAFGTNQEDYASYIMNGIIKWGDPVTRVLDDGELLVQQTKNSDRTPLVSVLLEGPPHSGATALAAKIAEESNFPFIKICSPDKMIGFSETAKCQAMKKIFDDAYKSQLSCVVVDDIERLLDYVPIGPRFSNLVLQALLVLLKKAPPQGRKLLIIGTTSRKDVLQEMEMLNAFSTTIHVPNIATGEQLLEALELLGNFKDKERTTIAQQVKGKKVWIGIKKLLMLIEMSLQMDPEYRVRKFLALLREEGASPLDFD
B5: NSF D604Q mutant (natural protein, UniProt P18708 1-744, looked up)
chain: MAGRSMQAARCPTDELSLSNCAVVSEKDYQSGQHVIVRTSPNHKYIFTLRTHPSVVPGSVAFSLPQRKWAGLSIGQEIEVALYSFDKAKQCIGTMTIEIDFLQKKNIDSNPYDTDKMAAEFIQQFNNQAFSVGQQLVFSFNDKLFGLLVKDIEAMDPSILKGEPASGKRQKIEVGLVVGNSQVAFEKAENSSLNLIGKAKTKENRQSIINPDWNFEKMGIGGLDKEFSDIFRRAFASRVFPPEIVEQMGCKHVKGILLYGPPGCGKTLLARQIGKMLNAREPKVVNGPEILNKYVGESEANIRKLFADAEEEQRRLGANSGLHIIIFDEIDAICKQRGSMAGSTGVHDTVVNQLLSKIDGVEQLNNILVIGMTNRPDLIDEALLRPGRLEVKMEIGLPDEKGRLQILHIHTARMRGHQLLSADVDIKELAVETKNFSGAELEGLVRAAQSTAMNRHIKASTKVEVDMEKAESLQVTRGDFLASLENDIKPAFGTNQEDYASYIMNGIIKWGDPVTRVLDDGELLVQQTKNSDRTPLVSVLLEGPPHSGKTALAAKIAEESNFPFIKICSPDKMIGFSETAKCQAMKKIFDDAYKSQLSCVVVDQIERLLDYVPIGPRFSNLVLQALLVLLKKAPPQGRKLLIIGTTSRKDVLQEMEMLNAFSTTIHVPNIATGEQLLEALELLGNFKDKERTTIAQQVKGKKVWIGIKKLLMLIEMSLQMDPEYRVRKFLALLREEGASPLDFD

Target: the molecule itself
Assay: SEC

Binding result, binds:
B1
B2
B3
B4
B5
